The source of these data is publication PMC11784390, “Conformational changes in and translocation of small proteins: insights into the ejection mechanism of podophages” (Journal of Virology, 2024).

T1: portal protein gp8 (bacteriophage T7, UniProt P03728 1-536)
T1 construct: portal protein gp8 of bacteriophage T7, as it stands in the virion; Native virion protein; also called dodecameric portal; source: T7 virions propagated in E. coli, purified (PEG precipitation, CsCl ultracentrifugation); copies: 12
T1 sequence (looked up): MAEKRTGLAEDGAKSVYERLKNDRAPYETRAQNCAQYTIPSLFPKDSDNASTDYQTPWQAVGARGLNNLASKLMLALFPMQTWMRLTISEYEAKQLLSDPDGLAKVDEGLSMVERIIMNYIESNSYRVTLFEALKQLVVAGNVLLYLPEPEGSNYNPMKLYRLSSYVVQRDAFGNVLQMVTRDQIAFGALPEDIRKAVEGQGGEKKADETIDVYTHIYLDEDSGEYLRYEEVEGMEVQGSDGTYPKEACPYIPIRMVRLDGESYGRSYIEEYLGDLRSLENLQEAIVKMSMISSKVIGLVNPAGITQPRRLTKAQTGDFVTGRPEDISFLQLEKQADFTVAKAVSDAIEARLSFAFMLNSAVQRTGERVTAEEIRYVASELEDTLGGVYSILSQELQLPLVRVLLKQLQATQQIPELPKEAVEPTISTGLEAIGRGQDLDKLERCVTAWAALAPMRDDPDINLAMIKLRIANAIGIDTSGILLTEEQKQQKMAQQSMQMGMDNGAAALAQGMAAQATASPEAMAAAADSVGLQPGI

T2: core protein gp15 (bacteriophage T7, UniProt P03725 1-747)
T2 construct: core protein gp15 of bacteriophage T7, as it stands in the mature virion; Eight-fold ring in the core of mature T7; source: T7 virions propagated in E. coli, purified (PEG precipitation, CsCl ultracentrifugation)
T2 sequence (looked up): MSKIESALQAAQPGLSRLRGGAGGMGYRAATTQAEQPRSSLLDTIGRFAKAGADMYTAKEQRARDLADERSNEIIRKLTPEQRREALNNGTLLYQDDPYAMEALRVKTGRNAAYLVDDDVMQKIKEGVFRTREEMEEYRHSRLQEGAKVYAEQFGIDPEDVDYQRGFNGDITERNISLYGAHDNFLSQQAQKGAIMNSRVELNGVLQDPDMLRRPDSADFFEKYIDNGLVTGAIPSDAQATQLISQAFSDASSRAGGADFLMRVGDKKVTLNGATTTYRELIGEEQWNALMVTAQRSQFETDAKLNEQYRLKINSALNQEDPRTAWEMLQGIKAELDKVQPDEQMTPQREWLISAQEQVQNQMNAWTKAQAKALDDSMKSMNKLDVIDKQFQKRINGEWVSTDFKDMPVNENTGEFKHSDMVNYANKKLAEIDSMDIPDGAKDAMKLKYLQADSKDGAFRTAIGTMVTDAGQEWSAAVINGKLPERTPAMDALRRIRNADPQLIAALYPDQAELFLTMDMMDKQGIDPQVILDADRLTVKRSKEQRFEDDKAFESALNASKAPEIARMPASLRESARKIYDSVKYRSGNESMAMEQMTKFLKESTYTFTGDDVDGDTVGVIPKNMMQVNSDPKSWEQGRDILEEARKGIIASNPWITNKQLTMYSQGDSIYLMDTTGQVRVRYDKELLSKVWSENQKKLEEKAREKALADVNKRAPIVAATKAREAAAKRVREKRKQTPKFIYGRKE

T3: nozzle protein gp12 (bacteriophage T7, UniProt P03747 1-794)
T3 construct: nozzle protein gp12 of bacteriophage T7, as it stands in the virion; Native virion protein; also called tail nozzle; source: T7 virions propagated in E. coli, purified (PEG precipitation, CsCl ultracentrifugation)
T3 sequence (looked up): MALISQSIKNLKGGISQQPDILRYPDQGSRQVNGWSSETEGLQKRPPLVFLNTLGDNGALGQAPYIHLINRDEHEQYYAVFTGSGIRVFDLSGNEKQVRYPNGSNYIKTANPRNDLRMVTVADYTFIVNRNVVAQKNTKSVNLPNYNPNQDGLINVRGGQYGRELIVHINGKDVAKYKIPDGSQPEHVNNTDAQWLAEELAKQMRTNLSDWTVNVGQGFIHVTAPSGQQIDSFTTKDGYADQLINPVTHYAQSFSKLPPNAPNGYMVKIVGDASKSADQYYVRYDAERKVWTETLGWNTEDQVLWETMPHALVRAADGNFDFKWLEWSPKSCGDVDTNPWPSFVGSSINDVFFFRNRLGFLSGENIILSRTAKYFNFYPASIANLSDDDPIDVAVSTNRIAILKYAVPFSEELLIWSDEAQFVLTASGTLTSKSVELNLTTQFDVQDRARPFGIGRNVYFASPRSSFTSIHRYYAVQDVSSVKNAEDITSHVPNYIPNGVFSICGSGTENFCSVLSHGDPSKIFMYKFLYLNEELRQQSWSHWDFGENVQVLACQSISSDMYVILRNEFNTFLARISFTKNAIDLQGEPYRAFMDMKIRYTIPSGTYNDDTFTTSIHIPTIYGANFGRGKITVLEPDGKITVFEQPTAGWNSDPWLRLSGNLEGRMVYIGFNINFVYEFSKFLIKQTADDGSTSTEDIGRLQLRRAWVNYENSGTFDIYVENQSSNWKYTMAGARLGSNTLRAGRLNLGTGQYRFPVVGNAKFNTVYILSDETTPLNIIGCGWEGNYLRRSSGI

T4: core protein gp16 (bacteriophage T7), P03726
T4 chain: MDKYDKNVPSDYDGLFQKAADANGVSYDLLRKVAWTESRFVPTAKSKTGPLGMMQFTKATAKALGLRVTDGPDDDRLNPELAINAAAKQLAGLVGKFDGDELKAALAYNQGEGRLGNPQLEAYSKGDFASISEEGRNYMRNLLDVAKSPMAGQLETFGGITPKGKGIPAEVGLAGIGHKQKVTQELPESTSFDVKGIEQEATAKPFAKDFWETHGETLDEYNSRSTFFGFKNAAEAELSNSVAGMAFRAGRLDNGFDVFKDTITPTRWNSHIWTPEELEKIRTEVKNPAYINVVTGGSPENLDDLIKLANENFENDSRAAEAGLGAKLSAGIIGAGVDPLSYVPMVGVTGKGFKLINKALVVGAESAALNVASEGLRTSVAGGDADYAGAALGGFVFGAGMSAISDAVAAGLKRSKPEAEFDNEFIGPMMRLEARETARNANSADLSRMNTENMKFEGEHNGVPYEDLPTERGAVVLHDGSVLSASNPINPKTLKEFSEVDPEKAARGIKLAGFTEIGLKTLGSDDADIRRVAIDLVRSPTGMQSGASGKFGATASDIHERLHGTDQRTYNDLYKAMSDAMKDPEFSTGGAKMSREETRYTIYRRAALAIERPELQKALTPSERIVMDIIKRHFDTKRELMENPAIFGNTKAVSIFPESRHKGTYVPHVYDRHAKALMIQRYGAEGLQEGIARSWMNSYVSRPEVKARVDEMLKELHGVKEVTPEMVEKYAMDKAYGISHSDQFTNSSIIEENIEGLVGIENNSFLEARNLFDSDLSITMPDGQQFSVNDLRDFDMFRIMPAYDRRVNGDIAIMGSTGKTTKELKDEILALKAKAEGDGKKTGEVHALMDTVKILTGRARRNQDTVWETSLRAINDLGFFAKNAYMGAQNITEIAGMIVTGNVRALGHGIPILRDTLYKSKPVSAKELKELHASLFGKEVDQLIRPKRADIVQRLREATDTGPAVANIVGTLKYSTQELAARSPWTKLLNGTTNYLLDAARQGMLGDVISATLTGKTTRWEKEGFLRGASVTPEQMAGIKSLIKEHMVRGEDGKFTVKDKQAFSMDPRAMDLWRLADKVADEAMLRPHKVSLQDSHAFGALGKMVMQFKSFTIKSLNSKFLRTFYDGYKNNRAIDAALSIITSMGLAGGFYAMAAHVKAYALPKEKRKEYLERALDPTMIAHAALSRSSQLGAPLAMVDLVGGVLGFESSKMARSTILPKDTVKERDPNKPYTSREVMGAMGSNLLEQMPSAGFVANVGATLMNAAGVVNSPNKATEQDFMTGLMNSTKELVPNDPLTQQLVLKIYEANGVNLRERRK

B1: core protein gp14 (natural protein, bacteriophage T7, UniProt P03724 1-196, looked up)
chain: MCWAAAIPIAISGAQAISGQNAQAKMIAAQTAAGRRQAMEIMRQTNIQNADLSLQARSKLEEASAELTSQNMQKVQAIGSIRAAIGESMLEGSSMDRIKRVTEGQFIREANMVTENYRRDYQAIFAQQLGGTQSAASQIDEIYKSEQKQKSKLQMVLDPLAIMGSSAASAYASGAFDSKSTTKAPIVAAKGTKTGR
notes: core protein gp14 of bacteriophage T7, 196 residues as printed; modelled residues 4-86 and 101-129 in mature T7, 25-143 in DNA-ejected T7; Eight copies resolved in the mature virion, six copies in the extended channel of DNA-ejected T7; source: T7 virions propagated in E. coli, purified (PEG precipitation, CsCl ultracentrifugation)
B2: small protein gp6.7 (natural protein, bacteriophage T7, UniProt P03801 1-88, looked up)
chain: MCFSPKIKTPKMDTNQIRAVEPAPLTQEVSSVEFGGSSDETDTEGTEVSGRKGLKVERDDSVAKSKASGNGSARMKSSIRKSAFGGKK
notes: gp6.7 of bacteriophage T7, 88 residues as printed; modelled loop I (2-15) and loop II (34-50) in mature T7, conformer A 11-41 and conformer B 11-59 in DNA-ejected T7; Twelve copies in the mature virion and in the extended channel of DNA-ejected T7; also called core protein gp6.7; source: T7 virions propagated in E. coli, purified (PEG precipitation, CsCl ultracentrifugation)
B3: core protein gp16, P03726 1-1318 (natural protein)
chain: T4 chain

One data set has as its target T1, portal protein gp8. Briefly: cryo-EM structure; mature T7 virions, in situ; entire particle asymmetric 6.1 Å; local reconstructions of core complex 3 Å (four-fold), portal 2.5 Å (twelve-fold), portal–tail complex 2.7 Å (six-fold). The note with it: both partners purified.
The next data set has as its target T2, core protein gp15. The description is as above. Particulars: both partners purified.
Data set [1] concerns the molecule itself. The data set is described as follows: cryo-EM structure; DNA-ejected T7: purified mature T7 incubated with rough LPS (250 µg/mL) at 37°C for 3 h; entire particle asymmetric 8.2 Å; portal–tail complex 3.5 Å (six-fold).
Another data set has as its target T3, nozzle protein gp12. The data set is described as above. Particulars: both partners purified.
The data set “core protein gp14” addresses B1. The data set is described as follows: cryo-EM structure; mature T7 virions, in situ; entire particle asymmetric 6.1 Å; local reconstructions of core complex 3 Å (four-fold), portal 2.5 Å (twelve-fold), portal–tail complex 2.7 Å (six-fold). The note with it: both partners purified.
In data set [2] the target is T4, core protein gp16 (bacteriophage T7), …. Described as above. Particulars: remark: other sources report otherwise.

B1: the binding result with portal protein gp8, in the data set with core protein gp15 and in the data set with nozzle protein gp12 was “binds” each time. Also, the “stoichiometry N” value in data set [1] is 6.
Take B2: the binding result with core protein gp14, in the data set with portal protein gp8, with core protein gp15 and with nozzle protein gp12 was “binds” throughout.
In turn, B3 displayed a stoichiometry N in data set [2] of 4.

In general, stoichiometry N refers to a count of units in the complex or per binding partner.
